Results from PMC5724578 (Biochemistry, 2017).

Target: VASP EVH1 domain (wild type) (human, UniProt P50552 2-115)
Assay: NMR titration

Kd: 32.2 ± 1.7 µM
B1: Zyxin proline rich region, residues 41-140 (domain or fragment, human, UniProt Q15942 41-140, looked up)
chain: PGDSEPPPAPGAQRAQMGRVGEIPPPPPEDFPLPPPPLAGDGDDAEGALGGAFPPPPPPIEESFPPAPLEEEIFPSPPPPPEEEGGPEAPIPPPPQPREK
